Results as given in patent US20150307585A1 (published 2015).

B1: T1 (TCR, V domains shown)
Valpha: EDQVTQSPEALRLQEGESSSLNCSYTVSGLRGLFWYRQDPGKGPEFLFTLYSAGEEKEKERLKATLTKKESFLHITAPKPEDSATYLCAVQTSQGGSEKLVFGKGTKLTVNP
Vbeta: DTEVTQTPKHLVMGMTNKKSLKCEQHMGHRAMYWYKQKAKKPPELMFVYSYEKLSINESVPSRFSPECPNSSLLNLHLHALQPEDSALYLCASSQDASGIYYEQYFGPGTRLTVT
B2: T6 (TCR, V domains shown)
Valpha: GESVGLHLPTLSVQEGDNSIINCAYSNSASDYFIWYKQESGKGPQFIIDIRSNMDKRQGQRVTVLLNKTVKHLSLQIAATQPGDSAVYFCAENRGANSKLTFGKGITLSVRP
Vbeta: DAGVIQSPRHEVTEMGQEVTLRCKPISGHNSLFWYRQTMMRGLELLIYFNNNVPIDDSGMPEDRFSAKMPNASFSTLKIQPSEPRDSAVYFCASSFTGGFYGYTFGSGTRLTVV
B3: T3/T4, chain combination TRAV5/TRBV20-1 (TCR, V domains shown)
Valpha: GEDVEQSLFLSVREGDSSVINCTYTDSSSTYLYWYKQEPGAGLQLLTYIFSNMDMKQDQRLTVLLNKKDKHLSLRIADTQTGDSAIYFCAESKRFSDGQKLLFARGTMLKVDL
Vbeta: GAVVSQHPSWVICKSGTSVKIECRSLDFQATTMFWYRQFPKQSLMLMATSNEGSKATYEQGVEKDKFLINHASLTLSTLTVTSAHPEDSSFYICSARDLITDTQYFGPGTRLTVL
B4: T5 (TCR, V domains shown)
Valpha: GENVEQHPSTLSVQEGDSAVIKCTYSDSASNYFPWYKQELGKGPQLIIDIRSNVGEKKDQRIAVTLNKTAKHFSLHITETQPEDSAVYFCAASLGSGNTPLVFGKGTRLSVIA
Vbeta: DVKVTQSSRYLVKRTGEKVFLECVQDMDHENMFWYRQDPGLGLRLIYFSYDVKMKEKGDIPEGYSVSREKKERFSLILESASTNQTSMYLCASSLHSGRDTQYFGPGTRLTVL
B5: T2 (TCR, V domains shown)
Valpha: GENVEQHPSTLSVQEGDSAVIKCTYSDSASNYFPWYKQELGKGPQLIIDIRSNVGEKKDQRIAVTLNKTAKHFSLHITETQPEDSAVYFCAASRGGAQKLVFGQGTRLTINP
Vbeta: DTAVSQTPKYLVTQMGNDKSIKCEQNLGHDTMYWYKQDSKKFLKIMFSYNNKELIINETVPNRFSPKSPDKAHLNLHINSLELGDSAVYFCASSQLAGGPLYNEQFFGPGTRLTVL

Legend:
[1] = biological target: T1, RAC1 P29S (Ras-related C3 botulinum toxin substrate 1) peptide on HLA-A*02:01 (human); experiment: cytokine release
T1 peptide: FSGEYIPTV

[2] = biological target: T1, RAC1 P29S (Ras-related C3 botulinum …); experiment: multimer staining

Row | Binder | binding result [1] | binding result [2]
1 | B1 | recognises | –
2 | B2 | – | recognises
3 | B3 | – | recognises
4 | B4 | – | recognises
5 | B5 | recognises | –
